Assay [1] has as its target recombinant human CCL20 (R&D Systems, #360-MP-025/CF) (human) (UniProt P78556). Nature of the assay: cell-based or functional assay.
Assay [2] shares this target. Put plainly: SPR (Biacore): antibody captured on anti-human Fc, 100 nM chemokine injected; ratio = chemokine binding level over antibody capture level.
For assay [3] the target is unchanged. Nature of the assay: SPR (Biacore), antibody captured by anti-human Fc, human CCL20 injected (monovalent format), 1:1 Langmuir, average of two experiments.

Positions count from the first letter of the chain named.

recombinant human CCL20 (R&D Systems, #360-MP-025/CF) (human), sequence (P78556 other isoform, or with tags, fused parts or gaps limits assumed): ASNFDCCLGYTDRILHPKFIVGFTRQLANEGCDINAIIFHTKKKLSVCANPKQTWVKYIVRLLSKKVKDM

B1: mouse anti-human CCL20 monoclonal antibody 36F7C10 (antibody, V domains shown)
VH: QVQLQQPGAELVKPGASVKMSCKASGYTFTNYWMHWVKQRPGQGLEWIGVIDPSDSYTTYNQKFKGKATLTVDTSSSTAYMQLSSLTSEDSAVYYCTRGNYGVDYAMDYWGQGTSVTVSS
VL: DIQMTQSPASLSASVGETVTITCGASENIYGALNWYQRKQGKSPQLLIYGATNLADGMSSRFSGSGSGRQYSLKISSLHPDDVATYYCQNVLITPYTFGGGTKLEIK
Take B1: in assay [1], the IC50, chemotaxis of human CCR6-transduced B300.19 cells toward 10 nM human CCL20 amounted to 1.7 nM; the IC90, chemotaxis of human CCR6-transduced B300.19 cells toward 10 nM human CCL20 turned out to be 3.94 nM; the IC95, chemotaxis of human CCR6-transduced B300.19 cells toward 10 nM human CCL20 came out at 7.68 nM.

B2: chimeric 36F7C10 antibody (36F7C10-hFc) (antibody, V domains shown)
VH: B1 VH
VL: B1 VL
Take B2: in assay [1], the IC50, chemotaxis of human CCR6-transduced B300.19 cells toward 10 nM human CCL20 amounted to 1.44 nM; the IC90, chemotaxis of human CCR6-transduced B300.19 cells toward 10 nM human CCL20 was determined as 3.51 nM; the IC95, chemotaxis of human CCR6-transduced B300.19 cells toward 10 nM human CCL20 came to 5.48 nM. In assay [2], the ReqCk/ReqAb ratio amounted to 0.153.

B3: humanized anti-human CCL20 antibody 36LK3/36HC2 (antibody, human IgG1, kappa, V domains shown)
VH: QVQLVQSGAEVKKPGASVKVSCKASGYTFTNYWMHWVRQAPGQGLEWMGVIDPSDSYTTYAQKFQGRVTMTVDTSTSTVYMELSSLRSEDTAVYYCARGNYGVDYAMDYWGQGTLVTVSS
VL: DIQMTQSPSSLSASVGDRVTITCGASENIYGALNWYQRKPGKAPKLLIYGATNLADGVPSRFSGSGSGRDYTLTISSLQPEDFATYYCQNVLITPYTFGQGTKLEIKR
As usually defined, the Kd is the equilibrium constant for the complex coming apart. What is called koff is a measure of how fast the partners let go of each other. As usually defined, the kon is the second-order rate constant of association. Take B3: in assay [1], the IC50, chemotaxis assay, Assay-1 was determined as 0.65 nM; the IC50, chemotaxis assay, Assay-2 was found to be 1.09 nM; the IC50, chemotaxis assay, Assay-3 was 1.3 nM; the IC50, chemotaxis assay, Average amounted to 1.01 nM. Also, in assay [1], the IC90, chemotaxis assay, Assay-1 was 3.55 nM; the IC90, chemotaxis assay, Assay-2 worked out at 3.35 nM; the IC90, chemotaxis assay, Assay-3 was found to be 6.79 nM; the IC90, chemotaxis assay, Average amounted to 4.56 nM. Also, in assay [1], the IC95, chemotaxis assay, Assay-1 stood at 7.59 nM; the IC95, chemotaxis assay, Assay-2 is 5.41 nM; the IC95, chemotaxis assay, Assay-3 worked out at 13.9 nM; the IC95, chemotaxis assay, Average came out at 8.97 nM. Further, in assay [3], the Kd turned out to be 0.07 nM, the koff amounted to 0.00117 s⁻¹ and the kon is 1.66e+07 M⁻¹ s⁻¹. Moreover, in assay [2], the ReqCk/ReqAb ratio turned out to be 0.143.

B4: humanized anti-human CCL20 antibody 36LC3/36HC2 (antibody, human IgG1, kappa, V domains shown)
VH: B3 VH
VL: B3 VL with G24R, R38Q, D70Q, T72S, Q100G
Regarding B4, in assay [1], the IC50, chemotaxis assay, Assay-1 was determined as 0.9 nM; the IC50, chemotaxis assay, Assay-2 worked out at 1.26 nM; the IC50, chemotaxis assay, Assay-3 was found to be 1.2 nM; the IC50, chemotaxis assay, Average turned out to be 1.12 nM. In assay [1], the IC90, chemotaxis assay, Assay-1 turned out to be 4.64 nM; the IC90, chemotaxis assay, Assay-2 was 5.82 nM; the IC90, chemotaxis assay, Assay-3 is 5.3 nM; the IC90, chemotaxis assay, Average was determined as 5.25 nM. For the same molecule, in assay [1], the IC95, chemotaxis assay, Assay-1 was 11.8 nM; the IC95, chemotaxis assay, Assay-2 is more than 66.8 nM; the IC95, chemotaxis assay, Assay-3 came to 10.3 nM. In assay [3], the dissociation constant (Kd) is 0.044 nM, the koff is 0.00061 s⁻¹ and the kon came out at 1.45e+07 M⁻¹ s⁻¹. Also, the ReqCk/ReqAb ratio in assay [2] turned out to be 0.156.

These data come from patent publication US20160046707A1.
